We go through one molecule from patent US20190315842A1 (DUKE UNIVERSITY, published 2019).

In the experiment the target is T1, systemic lupus erythematosus autoantigen SSB (UniProt P05455 1-408, limits assumed).
T1 sequence (looked up): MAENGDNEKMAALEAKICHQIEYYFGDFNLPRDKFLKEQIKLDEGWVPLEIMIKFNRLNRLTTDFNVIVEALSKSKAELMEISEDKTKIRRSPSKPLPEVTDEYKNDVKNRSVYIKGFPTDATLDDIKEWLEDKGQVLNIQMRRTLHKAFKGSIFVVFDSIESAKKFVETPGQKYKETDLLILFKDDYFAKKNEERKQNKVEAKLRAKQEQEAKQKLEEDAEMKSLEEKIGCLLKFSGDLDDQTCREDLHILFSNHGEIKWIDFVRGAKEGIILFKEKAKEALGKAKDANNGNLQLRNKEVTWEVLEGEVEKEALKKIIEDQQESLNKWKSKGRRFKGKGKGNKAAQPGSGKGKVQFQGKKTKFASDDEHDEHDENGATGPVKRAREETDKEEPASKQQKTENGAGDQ
The experiment is described as follows: AtheNA Multi-Lyte ANA, Ab at 25 ug/ml.

Method: All 7 mAbs were tested against the AtheNA Multi-Lyte panel of autoantigens. The AtheNA Multi-Lyte ANA test for a panel of nuclear antigens: systemic lupus erythematosus autoantigens SSA and SSB, sphingomyelin (Sm), ribonucleoprotein (RNP), sclerosis autoantigen (Scl-70), histidine-tRNA ligase (Jo-1), double-stranded DNA (dsDNA), centromere B (CentB), and histones. 4e10 (Anti HIV, NIH AIDS Reagent Program) and SYNAGIS® (anti-RSV monoclonal antibody palivizumab; “Synagis”) were used a controls.

B1: Ab7968 (antibody, IgG1, V domains shown)
VH: LVESGGGVVQPGRSLRLSCAASGFTFSRYGMHWVRQAPGKGLEWVAVMSYDGSTKYYADSVKGRFAISRDNPKNTLFLQMNSLRPDDTAVYYCAKGGAAAAVMDVWGKGTTVTVSS
VL: MTQSPDSLTVSLGERATISCKSSQRLLYSSNNKNYLAWYQQKPGQPPKLLMYWASTRESGVPDRFSGSGSGTDFSLTISSLQAEDVAVYYCQQYYNPPWTFGQGTKVEVK
notes: Recombinant human antibody with IgG1 heavy chain backbone and kappa light chain constant; they begin at LVESGGG and MTQSP; also called mAb 7968; mAb7968
Take B1: the AtheNA signal was determined as 8.
